Measurements from patent US20240269306A1, “B7H4-TARGETED ANTIBODY-DRUG CONJUGATES AND METHODS OF USE THEREOF” (Mersana Therapeutics, Inc., priority 2021, published 2024).
Where two headings read alike, the source gives them in different places.

Key:
[1] = target: T1, Human B7-H4 on the cell surface (MX-1, HCC1569, CAMA-1 cells; HEK-293 cells stably transfected with human B7-H4) (human) (UniProt Q7Z7D3); assay: flow cytometry, MX-1 cells
T1 sequence: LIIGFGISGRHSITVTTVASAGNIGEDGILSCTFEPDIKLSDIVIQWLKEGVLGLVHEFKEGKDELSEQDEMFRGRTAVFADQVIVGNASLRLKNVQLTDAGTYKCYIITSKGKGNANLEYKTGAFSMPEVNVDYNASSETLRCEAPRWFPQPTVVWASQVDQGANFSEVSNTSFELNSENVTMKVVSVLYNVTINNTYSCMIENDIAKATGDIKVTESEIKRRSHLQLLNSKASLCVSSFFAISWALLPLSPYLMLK

[2] = target: T2, Recombinant human B7-H4 protein (R&D Systems #6576-B7-050) (human) (UniProt Q7Z7D3); assay: ELISA, coated recombinant human B7-H4
T2 sequence: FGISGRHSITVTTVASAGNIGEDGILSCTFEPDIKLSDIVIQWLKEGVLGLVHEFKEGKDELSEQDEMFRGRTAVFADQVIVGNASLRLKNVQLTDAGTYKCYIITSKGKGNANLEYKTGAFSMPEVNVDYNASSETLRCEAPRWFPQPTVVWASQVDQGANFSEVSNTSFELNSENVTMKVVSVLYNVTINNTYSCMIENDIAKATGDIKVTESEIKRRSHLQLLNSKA

[3] = target: T1, Human B7-H4 on the cell surface (MX-1, HCC1569, CAMA-1 cells; HEK-293 cells stably transfected with human B7-H4) (human); assay: flow cytometry, MX-1 cells; remark: listed apart in the source
[4] = target: T2, Recombinant human B7-H4 protein (R&D Systems #6576-B7-050) (human); assay: BLI (Octet), antibody on anti-human Fc sensor, human B7-H4 in solution, 25 C
[5] = target: T1, Human B7-H4 on the cell surface (MX-1, HCC1569, CAMA-1 cells; HEK-293 cells stably transfected with human B7-H4) (human); assay: flow cytometry, HCC1569 cells
[6] = target: T2, Recombinant human B7-H4 protein (R&D Systems #6576-B7-050) (human); assay: BLI (Octet)
[7] = target: T2, Recombinant human B7-H4 protein (R&D Systems #6576-B7-050) (human); assay: ELISA, coated recombinant human B7-H4; remark: listed apart in the source

EC50 [1]: 8.83 nM
EC50 [2]: 0.52 nM
EC50 [3]: 4.9 nM
Kd [4]: 0.117 nM
koff [4]: 1.46e-05 s⁻¹
kon [4]: 125000 M⁻¹ s⁻¹
EC50 [5]: 3.44 nM
fold difference of kon against B7-H4 2F9 and variant antibodies [6]: < 2 fold
fold lower Kd than B7-H4 2F9 [6]: > 100 fold
EC50 [7]: 0.86 nM
B1: 1D11 antibody (antibody, from another filing, V domains shown)
VH: QVQLQQSGAELVRPGTSVKMSCKASGYTFTSYWIGWAKQRPGHGFEWIGDIYPGGGYTNYNEKFKGKATLTADKSSSTAYMQFSSLTSEDSAIYYCARLDGSSYRGAMDSWGQGTSITVSS
VL: DIQMTQSPSSLSASLGGKVTITCKASQGFNKYVAWYQHKPGQCPRLLIHYTSTLQPGIPARFSGSGSGRDYSFSISNLEPEDSATYFCLQYGNLLYAFGGGTKLEIKR
